Patent US20100041032A1

Target: Nodal, endogenous in mouse F9 Cripto-/- cells (mouse) (UniProt P43021)
Test: cell-based or functional assay

Chain of UniProt P43021 (P43021 245-354 limits assumed): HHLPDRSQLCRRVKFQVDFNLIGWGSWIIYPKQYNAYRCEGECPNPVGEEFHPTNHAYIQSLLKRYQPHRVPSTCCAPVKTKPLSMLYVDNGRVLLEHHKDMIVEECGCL

luciferase activity, FAST transcription factor dependent (n2)7-luciferase reporter assay in F9 Cripto-/- cells, fold increase compared with control: 4 to 6 fold
Substance: human Cripto-1 (protein encoded by TDGF1) (from UniProt P13385 31-150)
